Here are results for 20 sequences from a protein production outcome set (Wang et al. 2014).
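Note: failed if final PepcDB status was selected cloned or expressed and not failed if soluble or beyond.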

This data set is described as follows: label from the status in PepcDB records.
“MSIITRLFNNSDFEKLNQLCKLYDDLGYPTNENDLKKRLKKITNHDDYFLLLLIKENKIIGLSGMCKMMFYEKNAEYMRILAFVIHSEFRKKGYGKRLLADSEEFSKRLNCKAITLNSGNRNERLSAHKLYSDNGYV”: the protein production result was “failed”.

For “MSIKAGFDDRALARVEAAIRADVESGIYDGAVIKVARHGQIALDATIGFSNRRAGAAMREDAVFKVLSLTKAFTTTLVLEAIDLGLLSLTTRVVDVIPEFWGRDLFRSGRKERVNVGHLLTHRAGLSPTPQPLPYDQLHNFSETIQAICALDVVGEPGKAFNYSPTVNHALLGEMVRRVHGAASLAELMDQRLFSRLGMSSTSLGPTSQIRDRLVPLTSDFPEGGWLTNADIKAVADAIEAPNSQMPWVGAMTSAQDVFVFAEMLREQGTVRDERILSPAVVRKATTLQTGDAINDLYKLLADARHWDLPAGNMGLGFALGGDGLTVSQFGTLTSPGTFGNFGAGSTLFWVDPESQITFVCLTAKVMEESENILRFQRLSDLVASAAL”, the protein production entry is “failed”. Consider “MSIKIGLLGFGTVASGIPFLLKENGEKVFAASRDQLEIAKVLVKDDEEKDRLIAAGNDYNFVTNVDEILNDEEIQIVVELMGRIEPARTFITKALEAGKNVVSANKDLIATHGKELIALAQDKGVAFYYEAAVAGGIPILRTLANSLTSDKVTRILGVLNGTSNFMMTKMVDEGWSYEDALKTAQELGYAESDPTNDVEGYDAAYKAVILSQFGFGATIDFDDVSHKGITNISTDDVAVAQELGYVIKLVGDVREVESGISAEVSPTFLPKNHPLASVNDVMNAVFVESIGIGESMYYGPGAGQKPTATSVLADIIRIARRLSDGNVGKPFNEFRRDLPLANPADVKSNYYFALDTPDEKGKILHLSEIFNSEDISFEQVLQQKANGTTARIVVITHAMSKTQLKAVTEKLEAAEDFTVVNTLKVLSNLEHHHHHH”, for which the protein production entry was “not failed”.

In the case of “MSIKPKIMISSLDAERLEILLETLSQNAFPGRDDLEAELARAEVVDPEEIPPTVVTMNSTVRFRVESSAEEFCLTLVYPKDVDTSGEKISILAPVGSALLGLAQGDEIEWPKPGGGVLRVRIVEVTYQPERSGEYYR”, the protein production result is “not failed”.

With “MSIKVEDYFAPETFQRMKAFADKQETPFVVIDKQTIADAYDQLTDCFPFARIYYAVKANPATEITELLRDKGSNFDIASIYELDKVMKTGVGPERISYGNTIKKSKDIRYFYEKGVRLFATDSEADLRNIAKAAPGAKVYVRILTEGSTTADWPLSRKFGCQTDMAMDLLILARQLGLEPYGISFHVGSQQRDISVWDAAIAKVKVIFERLKEEDGIVLKMINMGGGFPANYITKTNDLETYAEEIIRFLKEDFGDDLPEIILEPGRSLIANAGILVSEVVLVARKSRTAVERWVYADVGKFSGLIETMDESIKFPIWTEKQGEMEEVVIAGPTCDSADIMYEHYKYGLPLNLASGDRLYWLSTGAYTTSYSAVEFNGFPPLKAFYL”, the protein production entry is “failed”.

Turning to “MSILLSKTLRELIFWMAWIIIPLIMEIIPAFGGFFILVKKSFNSNREGFIGTLPEITLIIPIYNSEATLKGCIESIYNCSYPTRLIDLILVNNMSSDDSFQVFSQCQKEFCGLSMRYMNSKQGKSKALNMALFNSAGKYIIHIDSDGKLHYDAIKNMIVRFEKNPNIHCMTGAILSDIEGIEKTHKRFLKLIRRCEFFEYAQAFLAGRNFESEINSIYTLSGAFSAFRKSTILKTQLYNSKTVCEDTHITFQVRRLLKKKVYLCENSIFFVDPIENLNKLYTQRQRWQRGEIEVSHMFFKNKMNSPLGFFHNFMIRVVMYDHTFAFPRMIWYFAIIFLFFMNYPVKLVVGSLVIIYMLYVLSTFLFYLNVRIYLKEYKSIREYYKARWGYIFLMPIYNFVVFWIRFAGIINSIKIKSKWKTLTLNDEWTAFLKVIQSDFRMIGKGINKIRRLVND”, the protein production result is recorded as “failed”.

As for “MSILQGILDTYAQFFDLDMWIKVLQDPVSWGLIGTLVVLEGLLSADNALVLAVMVKHLPEEKRKKALFYGLIGAYVFRFIAIGIGMFLIKLAWVKVLGALYLAWLSVKYFIDKRKGNAEEEEAHGMNQNSILFRMFGVFWGTVAMVELMDIAFSVDSVLAAFGVSNEVWILLLGGMLGILMMRGIAGVFLKLLERIPELETTAYILILIIAAKMLLSVIHIEISHTVFFIILVVAFGATFILHYMKNSGQAKEEVAATKEDNK”, the protein production entry is listed as “failed”. In the case of “MSINSNSVFNNSGRVSAAGIASVVGLAVLSAVAVTGGAVKVLVISWVAFAAMALGAWLGARADETNPYRLVWGYGLASGAMVTSAAMFLVPQAMGLGGQAGAARIGGVGIAAGLVTGYGTHTIGHRLTHIETSFDMTTIAIAAHALSAGLVIGLVYASMPDLGILLGLAIVSHKGPAGYAAARRLGRSDKSATALLLPAAGVGLTAIPSALLPVPESALLNAVIFGFAAGIFLHVAMDFLPNCEAGSEIDEVCELHDHSHDLLDELRTHAVGSTVVGAAVIVLAWVAI”, the protein production result was “failed”. The entry for “MSIPKEQYNFNKLQKRLRRNVGQAIADFNMIEDGDKIMVCLSGGKDSYTLLSILMNLQKSAPIQFSLIAVNLDQKQPGFPEHILPEYLEQLGVEYKIVEENTYGIVKEIIPEGKTTCSLCSRLRRGILYRTATEVGATKIALGHHRDDILETLFLNMFYGGKLKGMPPKLMSDDGKHIVIRPLAYAREKDIERFAQAKNFPIIPCNLCGSQPNLQRQVIKEMLRDWDKRYPGRIETMFRATQNIVPSHLCDTQLFDFANIKQGDEIINGGDLAFDKDDIPTSPILSDDEDERPDFSQARLDVVEVK” is “not failed”; for “MSIRSLGYLRIEATDMAAWREYGLKVLGMVEGKGAPEGALYLRMDDFPARLVVVPGEHDRLLEAGWECANAEGLQEIRNRLDLEGTPYKEATAAELADRRVDEMIRFADPSGNCLEVFHGTALEHRRVVSPYGHRFVTGEQGMGHVVLSTRDDAEALHFYRDVLGFRLRDSMRLPPQMVGRPADGPPAWLRFFGCNPRHHSLAFLPMPTSSGIVHLMVEVEQADDVGLCLDRALRRKVPMSATLGRHVNDLMLSFYMKTPGGFDIEFGCEGRQVDDRDWIARESTAVSLWGHDFTVGARG” it is “not failed”; for “MSISSKAKEILTQFTREVWSEGNIEASDKYIAPKYTVLHDPGDPWEGRELDVAGYKERVKTLRAAFPDQCFDIQGLFADGDAVVMTWLWTATHKEDIPGFPSTGKQIKMSGATVYYFDGNRLTGHWQITDRLGVYQQLRQAAAGA” it is “not failed”. The entry for “MSISWSMSRNMFKLAHISDVHLGPLPRLSIQELFSKRITGFVNWHRNRRKHLFASTLDLLLDDIRTHRADHLAVTGDLVNLASGIEIRAAAAWLRALGDPADTSVVPGNHDAYVPGAYEKSMRAWYDYVRGDLAPPQWQEDRRIFPYLRVRDKVAIVGCSTAVATPPFAASGFFSARQARDTVNMLRAAGEAGLFRVVMIHHPPIRGATAFHKRMIGIRRFAAVISTGGAELVLHGHTHLNTLHWLRGQVQPVPVVGIASASQGPGSIKPPAAYNLFSIDGAPGAWELTGERFSLNRTGDAMMPESVDIFAPLEHHHHHH” is “failed”. As to “MSITQRKNGTYEVSISWYDSLGKRRTKSKRGFKTKPEAVLGEAKLRLEYEEVSVREKVDQQDTFAEYFKNWYIFYKKPKVSKVTLNRYQYTYNVINEYFGNKLLKDITRANYQKFIVKYGQNHSPNTMKMINNCIKACVKNAVYDEEIKKDFTYNIELISNRDNVVQVEYLNVAEIKALLNSTISKLNPRYTSNYMIVTAILTGARLSEIAGLTWNDINFNFNTININKSYDYFAKSFKPTKNKSSNRIIKINNTLCDVLKELRTNNTDLVFKNKRGLIPTSNAVNKALRARLEELNINRRNFHFHSLRHSHVAFLLSQGIDIYPIAQRLGHSDITTTTRTYAYLIEEYKDKNDAIIIAGLDKLSAEKAPTKVPAKSDI”, the protein production entry is on record as “failed”.

As for “MSIVIMFKYVSDVSNIYHNIITSFIENKNIAIDATLGNGHDCDFLSELFKKVYAFDIQEEAVNSYKSKNKENVEVILDSHENFETYIKEENVDCIVYNLGYLPGNNKEVTTVAHSTLKSIEIGLDLLGDNGLMIIALYSGHEEGKKEKDAVLQFTSKLPKNKYGVLHTEFTNRAKSAPSLVVIEKKFK”, the protein production result is “failed”. “MSKATTPGDQPKVSEMDFYQLLGVEKMASEAEIKSAYRKLALKYHPDRNPNDAHAQEEFKKVSIAYSVLSDPNKRRQYDVSGPSENQLDFEGFDVSEMGGVGRVFGALFSKLGVPIPTQIVPKVLAQARHICMGQECDVQARQLPPGETVTSSVSKQHAHFYEINIQEEHRKNGVAIICKSSSSKFKLVLFDKEGGVRMIQESGKRGKAGTQADMFFVPYNVANIQEFNAMKYHLEDKETPLAFHYLDSFEMQTATLLETRKHYIAVYGDNWISDVKYSITFLPVEPSAVEQLNEIQDTEKSISIIKKEMLDFQREFTEAKRKYDEAVAKLKVQDDTILKALAHREELYNEVLQKSQEPYNKKVSPSKSSGGLLGWFK”: the protein production result was “not failed”. Regarding “MSKDAQQISALRRFSVSIISVALLVISGTVGYMYLENMSLLDALYMTVITVATVGFSEVRPLDDVGKIFTMVLIVGGTGIFFFTLTSVAVFFVSGEWKEHWEQQRNERMLRKLNDHFIICGYGRLGGSVAEELRAKAVPFVVIDNMIDNVLRARDEGFLAIKGNAADEEVLADAGLHRAKGLIAAAGNDAENVFIVLTARNLKPNLYIVARADCDGSESKLRRAGAEKVVMLYRSAGKRMASLLTEPELEEYLDELSNANNLNLRIAQYLVGDNSPLVGKSFQEVDLYNNHRINVVGYKLPDGELHTTPRPAEIIQKNGTIIVIGKSDDLEMLCKLAQGETQR”, the protein production entry is “failed”.

As to “MSKDEIKKPVVLIYCDTIEGTNIYLKKICEGLEEEGVPFQIQQVEKVEDSVEVLAQNASRNSNLGIGIGVLKNGDCALLQRRLPPNLPIQTLRGEKYDPNLYRNIGINAARLAKNLPLVFA”, the protein production result is listed as “not failed”.

For the sequence “MSKDSESNLAQRQSQPKAHADLRINSHWIIPIENTTDHNLVSNILIDHCLLIKDGIILAIEPQSSCQIPATETLDLGQQVLMPGWVNAHGHAAMSLFRGLADDLPLMTWLQEHVWPAEAQHVDEHFVKQGTELAIAEMIQSGTTTFADMYFYPQQSGEAALAAGIRAVCFAPVLDFPTNYAQNADEYIRKAIECNDRFNNHPMNEQGLVQIGFGPHAPYTVSDEPLKEITMLSDQLDMPVQIHLHETDFEVSESLETFNKRPTQRLADIGFLNERVSCVHMTQVDDGDIKILQKTGASIIHCPESNLKLASGFCPIAKLSAANIPLAIGTDGAASNNDLDMFSETKTAALLAKGVSQDASAIPAIEALTMATLGGARALGIDDITGSLKPGKAADIQAIDLNTLSSQPVFDPVSHMVYCTKSTQVSHVWVNGRCLLKNGELTTLNEETLINHAKAWASAIRTPIK”, the protein production result is given as “not failed”. “MSKFYSEQFKRDAVALYENNENLSLAAAAAELRVNRASLHQWKKELGTGKRTRMIEAKAQAEAASDAERIRALEKENAKLREERDILRKAAKYFAEETSWLEHHHHHH”: the protein production entry was “failed”. With “MSKGKKIFAIIFGIILVLFLAVVGMGAKLYWDVSKSMDKTYETVERSKKSQVNLNNKEPFSVLLLGIDTGDDGRVEQGRSDTTIVATVNPRDKQTTLVSLARDTYVDIPGQGKQDKLNHAYAFGGASLAMDTVENYLNIPINHYVSINMAGLKELVNAVGGIEVNNNLTFSQDGYDFTIGKISLDGEQALSYSRMRYEDPNGDYGRQERQRKVIEGIVQKVLSLNSVSNYQEILTAVSDNMKTDLSFDDMKKIALDYRSAFGKVKQDQLQGTGFMQDGVSYQRVDEQELTRVQQELKNQLNTK”, the protein production entry is on record as “failed”.
